The numbers were not newly measured in publication PMC2678197, which cites them from elsewhere.

What is called Kd is the equilibrium constant for the complex coming apart.

Where only a bound is given, the exact number is not on record here.

Data set [1] concerns the target CCR5 N-terminal peptide (unsulfated) N-terminal region (Homo sapiens) (UniProt P51681). Briefly: NMR.
Data set [2] addresses CCR5 N-terminal peptide (bis-sulfated) N-terminal region (Homo sapiens) (UniProt P51681). Nature of the data set: NMR.
Data set [3] concerns the target CCR3 N-terminal peptide (truncated, non-sulfated) 8-23 (Homo sapiens) (UniProt P51677).
The target in data set [4] is CCR3 N-terminal peptide (35 residues, non-sulfated) 1-35 (Homo sapiens) (UniProt P51677).
Chain of CCR3 N-terminal peptide (35 residues, non-sulfated) 1-35 (Homo sapiens) (P51677 1-35): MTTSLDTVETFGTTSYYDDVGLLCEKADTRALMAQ

Chain of eotaxin (P51671 24-97): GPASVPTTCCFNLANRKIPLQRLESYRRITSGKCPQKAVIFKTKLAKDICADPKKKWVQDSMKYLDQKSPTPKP
Chain of RANTES (P13501 27-91): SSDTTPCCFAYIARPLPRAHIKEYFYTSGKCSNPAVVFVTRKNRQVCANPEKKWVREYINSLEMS
Chain of CCR5 N-terminal peptide (bis-sulfated) N-terminal region (Homo sapiens) (P51681 1-27): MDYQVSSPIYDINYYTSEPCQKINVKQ

In the case of RANTES (from UniProt P13501), the Kd is 168 µM in data set [1] and less than 20 µM in data set [2].
Turning to eotaxin (from UniProt P51671), the Kd in data set [3] is 136 µM; in data set [4], 80 µM.
